9 variants from the supplement of paper PMC10266784 can be followed below.

First the molecules themselves.
B1: library; numbered along this chain (parent)
chain: MAAAAAAAAEQQSSNGPVKKSMREKAVERRSVNKEHNSNFKAGYIPIDEDRLHKTGLRGRKGNLAICVIILLFILAVINLIITLVIWAVIRIGPNGCDSMEFHESGLLRFKQVSDMGVIHPLYKSTVGGRRNENLVITGNNQPIVFQQGTTKLSVENNKTSITSDIGMQFFDPRTQNILFSTDYETHEFHLPSGVKSLNVQKASTERITSNATSDLNIKVDGRAIVRGNEGVFIMGKTIEFHMGGNMELKAENSIILNGSVMVSTTRLPSSSSGDQLGSGDWVRYKLCMCADGTLFKVQVTSQNMGCQISDNPCGNTH

The data set covers variants of B1. Description: SGCB cell-surface expression functional score (HA stain, bin4 vs bin1, normalised to synonymous) (log10 ratio); higher = more cell-surface SGCB (functional). The method, boiled down:
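HEK293 cells stably expressing alpha-, gamma- and delta-sarcoglycan received codon-saturation libraries of HA-tagged, YFP-fused human beta-sarcoglycan by lentiviral transduction at MOI <0.1, performed in duplicate. Cells positive for YFP were sorted after 72 hours and cultured for 5–7 days, then stained on ice with Alexa Fluor 647 anti-HA and fixed. Fixed cells were sorted into four 5% intensity bins and amplicon-sequenced, and the log ratio of highest-bin to lowest-bin variant frequency, as a median over codons and transductions, gives the functional score. Per section, synonymous variants were scaled to mean 0, SD 0.5.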
MAAAAAAAAEQQSSNGPVKKSMREKAVERRSVNKEHNSNFKAGYIPIDEDRLHKTGLRGRKGNLAICVIILLFILAVINLIITLVIWAVIRIGPNGCDSMEFHESGLVRFKQVSDMGVIHPLYKSTVGGRRNENLVITGNNQPIVFQQGTTKLSVENNKTSITSDIGMQFFDPRTQNILFSTDYETHEFHLPSGVKSLNVQKASTERITSNATSDLNIKVDGRAIVRGNEGVFIMGKTIEFHMGGNMELKAENSIILNGSVMVSTTRLPSSSSGDQLGSGDWVRYKLCMCADGTLFKVQVTSQNMGCQISDNPCGNTH [L108V]: the “SGCB cell-surface expression functional score (log10)” value was -0.08.
Regarding MAAAAAAAAEQQSSNGPVKKSMREKAVERRSVNKEHNSNFKAGYIPIDEDRLHKTGLRGRKGNLAICVIILLFILAVINLIITLVIWAVIRIGPNGCDSMEFHESGLYRFKQVSDMGVIHPLYKSTVGGRRNENLVITGNNQPIVFQQGTTKLSVENNKTSITSDIGMQFFDPRTQNILFSTDYETHEFHLPSGVKSLNVQKASTERITSNATSDLNIKVDGRAIVRGNEGVFIMGKTIEFHMGGNMELKAENSIILNGSVMVSTTRLPSSSSGDQLGSGDWVRYKLCMCADGTLFKVQVTSQNMGCQISDNPCGNTH [L108Y], the “SGCB cell-surface expression functional score (log10)” value was -1.74.
Next, MAAAAAAAAEQQSSNGPVKKSMREKAVERRSVNKEHNSNFKAGYIPIDEDRLHKTGLRGRKGNLAICVIILLFILAVINLIITLVIWAVIRIGPNGCDSMEFHESGLNRFKQVSDMGVIHPLYKSTVGGRRNENLVITGNNQPIVFQQGTTKLSVENNKTSITSDIGMQFFDPRTQNILFSTDYETHEFHLPSGVKSLNVQKASTERITSNATSDLNIKVDGRAIVRGNEGVFIMGKTIEFHMGGNMELKAENSIILNGSVMVSTTRLPSSSSGDQLGSGDWVRYKLCMCADGTLFKVQVTSQNMGCQISDNPCGNTH [L108N]: -2.59.
Next, MAAAAAAAAEQQSSNGPVKKSMREKAVERRSVNKEHNSNFKAGYIPIDEDRLHKTGLRGRKGNLAICVIILLFILAVINLIITLVIWAVIRIGPNGCDSMEFHESGLMRFKQVSDMGVIHPLYKSTVGGRRNENLVITGNNQPIVFQQGTTKLSVENNKTSITSDIGMQFFDPRTQNILFSTDYETHEFHLPSGVKSLNVQKASTERITSNATSDLNIKVDGRAIVRGNEGVFIMGKTIEFHMGGNMELKAENSIILNGSVMVSTTRLPSSSSGDQLGSGDWVRYKLCMCADGTLFKVQVTSQNMGCQISDNPCGNTH [L108M]: 0.07.
On to MAAAAAAAAEQQSSNGPVKKSMREKAVERRSVNKEHNSNFKAGYIPIDEDRLHKTGLRGRKGNLAICVIILLFILAVINLIITLVIWAVIRIGPNGCDSMEFHESGLKRFKQVSDMGVIHPLYKSTVGGRRNENLVITGNNQPIVFQQGTTKLSVENNKTSITSDIGMQFFDPRTQNILFSTDYETHEFHLPSGVKSLNVQKASTERITSNATSDLNIKVDGRAIVRGNEGVFIMGKTIEFHMGGNMELKAENSIILNGSVMVSTTRLPSSSSGDQLGSGDWVRYKLCMCADGTLFKVQVTSQNMGCQISDNPCGNTH [L108K], for which the “SGCB cell-surface expression functional score (log10)” value was -1.85.
As to MAAAAAAAAEQQSSNGPVKKSMREKAVERRSVNKEHNSNFKAGYIPIDEDRLHKTGLRGRKGNLAICVIILLFILAVINLIITLVIWAVIRIGPNGCDSMEFHESGLPRFKQVSDMGVIHPLYKSTVGGRRNENLVITGNNQPIVFQQGTTKLSVENNKTSITSDIGMQFFDPRTQNILFSTDYETHEFHLPSGVKSLNVQKASTERITSNATSDLNIKVDGRAIVRGNEGVFIMGKTIEFHMGGNMELKAENSIILNGSVMVSTTRLPSSSSGDQLGSGDWVRYKLCMCADGTLFKVQVTSQNMGCQISDNPCGNTH [L108P], the “SGCB cell-surface expression functional score (log10)” value was -1.13.
Regarding MAAAAAAAAEQQSSNGPVKKSMREKAVERRSVNKEHNSNFKAGYIPIDEDRLHKTGLRGRKGNLAICVIILLFILAVINLIITLVIWAVIRIGPNGCDSMEFHESGLRRFKQVSDMGVIHPLYKSTVGGRRNENLVITGNNQPIVFQQGTTKLSVENNKTSITSDIGMQFFDPRTQNILFSTDYETHEFHLPSGVKSLNVQKASTERITSNATSDLNIKVDGRAIVRGNEGVFIMGKTIEFHMGGNMELKAENSIILNGSVMVSTTRLPSSSSGDQLGSGDWVRYKLCMCADGTLFKVQVTSQNMGCQISDNPCGNTH [L108R], the “SGCB cell-surface expression functional score (log10)” value was -1.09.
For MAAAAAAAAEQQSSNGPVKKSMREKAVERRSVNKEHNSNFKAGYIPIDEDRLHKTGLRGRKGNLAICVIILLFILAVINLIITLVIWAVIRIGPNGCDSMEFHESGLSRFKQVSDMGVIHPLYKSTVGGRRNENLVITGNNQPIVFQQGTTKLSVENNKTSITSDIGMQFFDPRTQNILFSTDYETHEFHLPSGVKSLNVQKASTERITSNATSDLNIKVDGRAIVRGNEGVFIMGKTIEFHMGGNMELKAENSIILNGSVMVSTTRLPSSSSGDQLGSGDWVRYKLCMCADGTLFKVQVTSQNMGCQISDNPCGNTH [L108S] the value was -0.5; for MAAAAAAAAEQQSSNGPVKKSMREKAVERRSVNKEHNSNFKAGYIPIDEDRLHKTGLRGRKGNLAICVIILLFILAVINLIITLVIWAVIRIGPNGCDSMEFHESGLTRFKQVSDMGVIHPLYKSTVGGRRNENLVITGNNQPIVFQQGTTKLSVENNKTSITSDIGMQFFDPRTQNILFSTDYETHEFHLPSGVKSLNVQKASTERITSNATSDLNIKVDGRAIVRGNEGVFIMGKTIEFHMGGNMELKAENSIILNGSVMVSTTRLPSSSSGDQLGSGDWVRYKLCMCADGTLFKVQVTSQNMGCQISDNPCGNTH [L108T], 0.
